Patent publication US20260152567A1 (CSPC MEGALITH BIOPHARMACEUTICAL, published 2026)

T1: C-terminal portion of the CD73 protein (Homo sapiens (Human), UniProt P21589 337-549)
T1 construct: also called CD73 C-terminal protein; C-terminus of the CD73 protein
T1 sequence: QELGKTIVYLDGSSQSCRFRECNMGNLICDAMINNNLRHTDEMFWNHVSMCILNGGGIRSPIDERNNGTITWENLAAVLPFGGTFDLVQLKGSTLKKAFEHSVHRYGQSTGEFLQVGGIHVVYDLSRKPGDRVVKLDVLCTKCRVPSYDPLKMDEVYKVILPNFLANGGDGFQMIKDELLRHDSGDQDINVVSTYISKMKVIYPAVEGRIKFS

T2: recombinant human CD73 protein (human, UniProt P21589 27-547)
T2 construct: Bought soluble protein; The background says that CD73 forms a homodimer; also called soluble CD73; free CD73 protein
T2 sequence (looked up): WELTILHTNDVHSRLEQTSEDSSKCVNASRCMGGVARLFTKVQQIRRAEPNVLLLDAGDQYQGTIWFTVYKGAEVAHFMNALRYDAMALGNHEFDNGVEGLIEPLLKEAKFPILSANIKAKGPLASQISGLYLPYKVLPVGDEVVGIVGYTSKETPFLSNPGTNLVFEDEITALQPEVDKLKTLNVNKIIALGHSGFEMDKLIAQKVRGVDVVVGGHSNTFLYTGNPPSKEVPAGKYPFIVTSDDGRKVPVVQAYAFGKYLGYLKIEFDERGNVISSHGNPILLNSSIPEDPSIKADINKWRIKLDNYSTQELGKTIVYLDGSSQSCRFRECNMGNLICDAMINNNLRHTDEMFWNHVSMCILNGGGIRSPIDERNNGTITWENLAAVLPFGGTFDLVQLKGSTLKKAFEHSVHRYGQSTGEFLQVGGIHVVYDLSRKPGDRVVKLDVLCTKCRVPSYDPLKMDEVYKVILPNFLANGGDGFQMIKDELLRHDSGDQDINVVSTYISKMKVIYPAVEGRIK


Key:
[1] = target: T1, C-terminal portion of the CD73 protein; assay: ELISA, plate coated with CD73 C-terminal protein at 1 µg/mL
Experimental: In this example, the C-terminal portion (SEQ ID NO. 41) and the N-terminal portion (SEQ ID NO. 42) of the CD73 protein were separately constructed, and the epitopes recognized by the antibodies were detected by ELISA method. Elisa plates were respectively coated with the CD73 N-terminal and C-terminal proteins at a concentration of 1 μg/mL. The test antibodies were diluted in a gradient.

[2] = target: T2, recombinant human CD73 protein; assay: BLI (Fortebio), human CD73 on HIS1K biosensors, antibody as analyte
Experimental: The humanized antibody VH and VL were separately constructed into eukaryotic expression vectors containing the hIgG1-kappa constant region with L234A, L235A, P329A and P331S mutations (abbreviated as hIgG1 in the present application). The affinity of all humanized antibodies was assayed in this example. Human CD73 protein was immobilized onto HIS1K biosensors to achieve a binding response threshold of 0.3 nm. After a 120-second baseline step, the sensors were separately immersed in anti-CD73 antibody analytes diluted in a gradient with a 0.02% PBST buffer (each antibody was diluted in a 2-fold gradient with an initial concentration of 25 nM, resulting in 7 concentration gradients). The times for the ligand-analyte binding and dissociation were 120 s and 300 s, respectively. The data of the antigen-antibody affinity were calculated by regression according to the binding curves using an analysis software.

| Binder | binding result [1] | Kd [2] | koff [2] | kon [2] |
| --- | --- | --- | --- | --- |
| Hab7C3C2.5 (antibody, human IgG1, kappa, L234A L235A, V domains shown, Humanized 7C3C2; also called Hab7C3C.5) VH: QVQLVQSGAEVKKPGASVKVSCKASGYTFTSYDINWVRQATGQGLEWIGWIYPRDGFTKYNEKFKGRVTLTVNTSISTAYMELSSLRSEDTAVYYCARKEGYRGDWYFDVWGQGTTVTVSS VL: DIQMTQSPSSLSASVGDRVTITCRASGNVHNYLAWYQQKPGKAPKLLLYNAKTLASGVPSRFSGSGSGTDYTLTISSLQPEDFATYYCQHFWSTPWTFGGGTELEIKR | no binding | 0.765 nM | 0.00272 s⁻¹ | 3.56e+06 M⁻¹ s⁻¹ |
| Hab1F2F9.15 (antibody, human IgG1, kappa, L234A L235A, V domains shown, Humanized 1F2F9; also called Huab1F2F9.15; HuablF2F9.15) VH: QVQLVQSGAEVKKPGASVKVSCKASGYTFTSYWMHWVRQAPGQRLEWMGNINPSNGGTKYSQKFQGRVTITVDTSASTAYMELSSLRSEDTAVYYCARRDYGSPSYWGQGTTVTVSS VL: DIQMTQSPSSLSASVGDRVTITCKASQDINSYLTWFQQKPGKAPKSLIYRTNILLDGVPSRFSGSGSGTDYTLTISSLQPEDFATYYCLQYHEFPVTFGGGTKLEIKR | no binding | 0.779 nM | 0.0016 s⁻¹ | 2.06e+06 M⁻¹ s⁻¹ |
